According to patent WO2010066762A1:

Molecular target: Recombinant Interleukin-1 beta (IL-1B) (human) (UniProt P01584)
Experiment: cell-based or functional assay

UniProt P01584, sequence (P01584 117-269 limits assumed): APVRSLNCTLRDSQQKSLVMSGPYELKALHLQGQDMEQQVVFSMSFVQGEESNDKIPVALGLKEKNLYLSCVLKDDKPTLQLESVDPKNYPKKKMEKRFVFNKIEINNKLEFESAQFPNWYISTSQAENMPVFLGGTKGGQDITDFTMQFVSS

ACZ885 antibody gave a Bioassay [%] (relative potency vs ACZ885 reference standard); reconstituted lyophilisate F1, stored at 5°C of 103%, a Bioassay [%] (relative potency vs ACZ885 reference standard); reconstituted lyophilisate F1, stored at 25°C of 99% and a Bioassay [%] (relative potency vs ACZ885 reference standard); reconstituted lyophilisate F1, stored at 40°C of 93%. For the same substance, the Bioassay [%] (relative potency vs ACZ885 reference standard); reconstituted lyophilisate F3, stored at 5°C was 101%, the Bioassay [%] (relative potency vs ACZ885 reference standard); reconstituted lyophilisate F3, stored at 25°C was 91% and the Bioassay [%] (relative potency vs ACZ885 reference standard); reconstituted lyophilisate F3, stored at 40°C was 95%. It also gave a Reporter Gene Assay [%] (relative potency vs ACZ885 reference standard); liquid formulation 150 mg/mL, start of 121%, a Reporter Gene Assay [%] (relative potency vs ACZ885 reference standard); liquid formulation, 5°C, 4 months of 97% and a Reporter Gene Assay [%] (relative potency vs ACZ885 reference standard); liquid formulation, 5°C, 10 months of 99%. For the same substance, the Reporter Gene Assay [%] (relative potency vs ACZ885 reference standard); liquid formulation, 5°C, 16.5 months was 110%, the Reporter Gene Assay [%] (relative potency vs ACZ885 reference standard); liquid formulation, 5°C, 24 months (n=4) was 99% and the Reporter Gene Assay [%] (relative potency vs ACZ885 reference standard); liquid formulation, 25°C, 4 months was 100%. The Reporter Gene Assay [%] (relative potency vs ACZ885 reference standard); liquid formulation, 25°C, 10 months was 85%, the Reporter Gene Assay [%] (relative potency vs ACZ885 reference standard); liquid formulation, 25°C, 16.5 months was 74% and the Reporter Gene Assay [%] (relative potency vs ACZ885 reference standard); liquid formulation, 25°C, 24 months (n=4) was 70%. The Reporter Gene Assay [%] (relative potency vs ACZ885 reference standard); liquid formulation, 40°C, 2 months was 78% and the Reporter Gene Assay [%] (relative potency vs ACZ885 reference standard); liquid formulation, 40°C, 4 months was 53%.
